# Experimental data as given in patent US20240301062A1 (BEIGENE SWITZERLAND, published 2024).
# T1: human claudin 6 (CLDN6) (human, UniProt P56747 1-220)
# T1 construct: also called human CLDN6; hCLDN6
# T1 sequence: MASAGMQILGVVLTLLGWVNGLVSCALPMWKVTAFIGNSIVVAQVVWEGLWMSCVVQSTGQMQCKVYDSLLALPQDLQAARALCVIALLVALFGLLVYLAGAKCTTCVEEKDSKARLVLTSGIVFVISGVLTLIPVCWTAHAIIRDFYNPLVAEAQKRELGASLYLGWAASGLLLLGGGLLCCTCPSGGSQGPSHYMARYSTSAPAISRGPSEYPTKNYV
# Molecular target: T1, human claudin 6 (CLDN6)
# Test: FACS, HEK293T/human CLDN6 cells
# Protocol: For affinity determination, CLDN6 over-expressing HEK293T cells and cancer cell line PA-1 which express high levels of human CLDN6 were used to evaluate the binding activity of BG87P related engineering variants. Live cells were seeded in 96-well plate, and were incubated with a series of dilutions of chBG87P and engineered variants thereof. Goat anti-human IgG was used as second antibody to detect antibody binding to the cell surface. EC50 values for dose-dependent binding to CLDN6 expressing cell lines were determined by fitting the dose-response data to the four-parameter logistic model with GraphPad Prism. Cell binding activity of 1st round of BG87P humanization variants against HEK293T/human CLDN6 were compared to chBG87P and shown in FIG. 1A.
# Beginning with the chBG87P antibody and BG87P-Bz0, several additional amino acid changes in the CDR regions of both VH and VL were made to further improve the biophysical properties for therapeutics use in human. The considerations included removing post translational modifications (PTM), improved heat stability (Tm), while maintaining binding activities, the resulted variants are BG87P-m1 (VH SEQ ID NO: 31 and VL SEQ ID NO: 8), BG87P-m2 (VH SEQ ID NO: 32 and VL SEQ ID NO: 8), BG87P-m3 (VH SEQ ID NO: 33 and VL SEQ ID NO: 8), and BG87P-m4 (VH SEQ ID NO: 34 and VL SEQ ID NO: 8) and BG87P-m5 (VH SEQ ID NO: 35 and VL SEQ ID NO: 14), BG87P-m6 (VH SEQ ID NO: 36 and VL SEQ ID NO 14), BG87P-m7 (VH SEQ ID NO: 37 and VL SEQ ID NO: 14), and BG87P-m8 (VH SEQ ID NO: 38 and VL SEQ ID NO: 14). Cell binding activity of chBG87P and BG87P-Bz0 related PTM removal variants against HEK293T/human CLDN6 was compared with chBG87P and BG87-Bz0, respectively ([…]). Cell binding affinity (EC50) and Emax (MFI) was normalized to chBG87P for directly comparison and ranking (Table 7).
Binder,EC50 [nM],Emax ratio to BG87P [ratio],Top MFI Mean [MFI]
"BG87P-m1 (antibody, V domains shown, PTM removal variant of chBG87P; constant regions not restated (parent: human IgG1/kappa)) VH: QIQLQQSGPELVKPGASVKISCKASGYSFTDYHINWVKQRPGQGLEWIGWIYPGSGYTKYNEKFKVKATLTVDTSSSTAYMHLTSLTSEDSAVYFCARSGIYHYVSSYYFEHWGQGTTLTVSS VL: DIVMTQSHTFMSTSVGDRVSITCKASQDVGTAVAWYQQKPGQSPKLLIYWASTRHTGVPDRFTGSGSGTDFTLTISNVQSEDLADYFCQQYSSYTFGGGTKLEIK",3.56,1.08,207000
"BG87P-Bz0 (antibody, V domains shown, also called BG87-Bz0) VH: QIQLVQSGAEVKKPGASVKVSCKASGYSFTDYHINWVRQAPGQRLEWMGWIYPGSGYTKYNEKFKVRVTLTVDTSASTAYMELSSLRSEDTAVYFCARSGIYHYVSSYYFDHWGKGTTVTVSS VL: DIQMTQSPSTLSASVGDRVTITCKASQDVGTAVAWYQQKPGKSPKLLIYWASTRHTGVPSRFSGSGSGTEFTLTISSVQPDDFATYFCQQYSSYTFGGGTKVEIK",2.1,0.56,107000
"BG87P-Bz8 (antibody, V domains shown) VH: QIQLVQSGAEVKKPGASVKVSCKASGYSFTDYHINWVRQAPGQRLEWMGWIYPGSGYTKYNEKFKVRVTLTVDTSASTAYMELSSLRSEDTAVYFCARSGIYHYVSSYYFDHWGKGTTVTVSS VL: DIQMTQSPSTLSASVGDRVTITCKASQDVGTAVAWYQQKPGKSPKLLIYWASTRHTGVPSRFSGSGSGTEFTLTISSVQPDDFATYYCQQYSSYTFGGGTKVEIK",1.71,0.68,131000
"BG87P-Bz4 (antibody, V domains shown) VH: QIQLVQSGAEVKKPGASVKVSCKASGYSFTDYHINWVRQAPGQRLEWMGWIYPGSGYTKYNEKFKVRVTLTRDTSASTAYMELSSLRSEDTAVYFCARSGIYHYVSSYYFDHWGKGTTVTVSS VL: DIQMTQSPSTLSASVGDRVTITCKASQDVGTAVAWYQQKPGKSPKLLIYWASTRHTGVPSRFSGSGSGTEFTLTISSVQPDDFATYFCQQYSSYTFGGGTKVEIK",1.88,0.57,110000
"BG87P-m7 (antibody, V domains shown, PTM removal variant of BG87P-Bz0; constant regions not restated (parent: human IgG1/kappa)) VH: QIQLVQSGAEVKKPGASVKVSCKASGYSFTDYHINWVRQAPGQRLEWMGWIYPGSGYTKYNEKFKGRVTLTVDTSASTAYMELSSLRSEDTAVYFCARSGIYHYVSSYYFDHWGKGTTVTVSS VL: DIQMTQSPSTLSASVGDRVTITCKASQDVGTAVAWYQQKPGKSPKLLIYWASTRHTGVPSRFSGSGSGTEFTLTISSVQPDDFATYFCQQYSSYTFGGGTKVEIK",2.43,0.7,134000
"BG87P-Bz5 (antibody, V domains shown) VH: QIQLVQSGAEVKKPGASVKVSCKASGYSFTDYHINWVRQAPGQRLEWMGWIYPGSGYTKYNEKFKVRVTLTVDTSASTAYMELSSLRSEDTAVYYCARSGIYHYVSSYYFDHWGKGTTVTVSS VL: DIQMTQSPSTLSASVGDRVTITCKASQDVGTAVAWYQQKPGKSPKLLIYWASTRHTGVPSRFSGSGSGTEFTLTISSVQPDDFATYFCQQYSSYTFGGGTKVEIK",2.55,0.73,141000
"BG87P-Bz1 (antibody, V domains shown) VH: QVQLVQSGAEVKKPGASVKVSCKASGYSFTDYHINWVRQAPGQRLEWMGWIYPGSGYTKYNEKFKVRVTLTVDTSASTAYMELSSLRSEDTAVYFCARSGIYHYVSSYYFDHWGKGTTVTVSS VL: DIQMTQSPSTLSASVGDRVTITCKASQDVGTAVAWYQQKPGKSPKLLIYWASTRHTGVPSRFSGSGSGTEFTLTISSVQPDDFATYFCQQYSSYTFGGGTKVEIK",2.19,0.52,99700
"BG87P-Bz7 (antibody, V domains shown) VH: QIQLVQSGAEVKKPGASVKVSCKASGYSFTDYHINWVRQAPGQRLEWMGWIYPGSGYTKYNEKFKVRVTLTVDTSASTAYMELSSLRSEDTAVYFCARSGIYHYVSSYYFDHWGKGTTVTVSS VL: DIQMTQSPSTLSASVGDRVTITCKASQDVGTAVAWYQQKPGKSPKLLIYWASTRHTGVPSRFSGSGSGTEFTLTISSLQPDDFATYFCQQYSSYTFGGGTKVEIK",2.54,0.81,155000
"BG87P-m8 (antibody, V domains shown, Variant of BG87P-Bz0 with H33A; constant regions not restated (parent: human IgG1/kappa)) VH: QIQLVQSGAEVKKPGASVKVSCKASGYSFTDYAINWVRQAPGQRLEWMGWIYPGSGYTKYNEKFKVRVTLTVDTSASTAYMELSSLRSEDTAVYFCARSGIYHYVSSYYFDHWGKGTTVTVSS VL: DIQMTQSPSTLSASVGDRVTITCKASQDVGTAVAWYQQKPGKSPKLLIYWASTRHTGVPSRFSGSGSGTEFTLTISSVQPDDFATYFCQQYSSYTFGGGTKVEIK",48.7,0.28,54000
"BG87P-m6 (antibody, V domains shown, PTM removal variant of BG87P-Bz0; constant regions not restated (parent: human IgG1/kappa)) VH: QIQLVQSGAEVKKPGASVKVSCKASGYSFTDYHINWVRQAPGQRLEWMGWIYPGSGYTKYNEKFKVRVTLTVDTSASTAYMELSSLRSEDTAVYFCARSGIYHYVSSYYFQHWGKGTTVTVSS VL: DIQMTQSPSTLSASVGDRVTITCKASQDVGTAVAWYQQKPGKSPKLLIYWASTRHTGVPSRFSGSGSGTEFTLTISSVQPDDFATYFCQQYSSYTFGGGTKVEIK",2.34,0.62,118000
"BG87P-m5 (antibody, V domains shown, PTM removal variant of BG87P-Bz0; constant regions not restated (parent: human IgG1/kappa)) VH: QIQLVQSGAEVKKPGASVKVSCKASGYSFTDYHINWVRQAPGQRLEWMGWIYPGSGYTKYNEKFKVRVTLTVDTSASTAYMELSSLRSEDTAVYFCARSGIYHYVSSYYFEHWGKGTTVTVSS VL: DIQMTQSPSTLSASVGDRVTITCKASQDVGTAVAWYQQKPGKSPKLLIYWASTRHTGVPSRFSGSGSGTEFTLTISSVQPDDFATYFCQQYSSYTFGGGTKVEIK",4.19,0.66,126000
"BG87P-Bz2 (antibody, V domains shown) VH: QIQLVQSGAEVKKPGASVKVSCKASGYTFTDYHINWVRQAPGQRLEWMGWIYPGSGYTKYNEKFKVRVTLTVDTSASTAYMELSSLRSEDTAVYFCARSGIYHYVSSYYFDHWGKGTTVTVSS VL: DIQMTQSPSTLSASVGDRVTITCKASQDVGTAVAWYQQKPGKSPKLLIYWASTRHTGVPSRFSGSGSGTEFTLTISSVQPDDFATYFCQQYSSYTFGGGTKVEIK",2.65,0.44,84300
"BG87P-Bz3 (antibody, V domains shown) VH: QIQLVQSGAEVKKPGASVKVSCKASGYSFTDYHINWVRQAPGQRLEWMGWIYPGSGYTKYNEKFKVRVTITVDTSASTAYMELSSLRSEDTAVYFCARSGIYHYVSSYYFDHWGKGTTVTVSS VL: DIQMTQSPSTLSASVGDRVTITCKASQDVGTAVAWYQQKPGKSPKLLIYWASTRHTGVPSRFSGSGSGTEFTLTISSVQPDDFATYFCQQYSSYTFGGGTKVEIK",2.63,0.56,107000
"BG87P-Bz6 (antibody, V domains shown) VH: QIQLVQSGAEVKKPGASVKVSCKASGYSFTDYHINWVRQAPGQRLEWMGWIYPGSGYTKYNEKFKVRVTLTVDTSASTAYMELSSLRSEDTAVYFCARSGIYHYVSSYYFDHWGKGTTVTVSS VL: DIQMTQSPSTLSASVGDRVTITCKASQDVGTAVAWYQQKPGKAPKLLIYWASTRHTGVPSRFSGSGSGTEFTLTISSVQPDDFATYFCQQYSSYTFGGGTKVEIK",2.79,0.75,144000
